From publication PMC6780499, “Characterization, Recombinant Production and Structure-Function Analysis of NvCI, A Picomolar Metallocarboxypeptidase Inhibitor from the Marine Snail Nerita versicolor” (Marine Drugs, 2019) come the findings set out here.

Read-outs that look alike come from different tables or passages of the source. No end group written: not given here.

One data set has as its target T1, hTAFI (Homo sapiens, UniProt Q96IY4).
T1 sequence (Q96IY4 115-423): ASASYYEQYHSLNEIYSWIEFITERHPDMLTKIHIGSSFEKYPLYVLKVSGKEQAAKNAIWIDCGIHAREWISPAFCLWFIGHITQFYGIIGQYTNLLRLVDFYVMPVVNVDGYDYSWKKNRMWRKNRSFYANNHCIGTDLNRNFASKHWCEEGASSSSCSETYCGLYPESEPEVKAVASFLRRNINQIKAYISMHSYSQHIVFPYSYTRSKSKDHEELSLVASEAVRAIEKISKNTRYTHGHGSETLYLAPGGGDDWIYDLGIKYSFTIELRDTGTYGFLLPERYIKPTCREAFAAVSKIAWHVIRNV
In words: Ki determination, tight-binding inhibition of metallocarboxypeptidase. In kind it is biochemical. The conditions noted are these: tight-binding equation fit; substrate AAFA 0.1mM; enzyme-inhibitor mixture not preincubated; 37 °C; means (n = 3) ± SD. How it is done:
Inhibitory activities against CPA- and CPB-type forms (bovine and human variants of CPA1, CPA2, CPA4, CPB1, and TAFI) were assayed for all extracts, subject to the experimental conditions that enzyme (E), substrate (S) and inhibitor (I) concentrations as well as the [I]/[E] ratio and preincubation time followed the requirements for tight-binding inhibitor assays. Similar approaches were followed to measure the activities of proteases of different catalytic types, like pepsin, papain, trypsin and subtilisin [45, 46, 47, 48]. All assays were performed in triplicate at 25 °C in a multiplexed manner. For 96-well assays an iEMS spectrophotometer reader/dispenser FM (Labsystems, Finland) was used with a final reaction volume of 250 μL. […] The reactions were followed at 5 s intervals for 5 min and recorded as initial velocities. […]
The Ki values of natural and recombinant NvCI against bCPA1, hCPA1, hCPA2, rat CPA3, hCPA4, hCPB1, bTAFI, hTAFI, hCPD and hCPZ were determined by measuring the enzymatic residual activity (Vi/V0 = a) at different inhibitor concentrations and using a fixed enzyme and substrate concentrations as described above, where vi and v0 are the fraction of enzymatic activity in the presence and absence of inhibitor, respectively, in terms of initial velocities. […]

The target in a further data set is T2, bCPA1 (Bos taurus, UniProt P00730).
T2 sequence (P00730 111-419): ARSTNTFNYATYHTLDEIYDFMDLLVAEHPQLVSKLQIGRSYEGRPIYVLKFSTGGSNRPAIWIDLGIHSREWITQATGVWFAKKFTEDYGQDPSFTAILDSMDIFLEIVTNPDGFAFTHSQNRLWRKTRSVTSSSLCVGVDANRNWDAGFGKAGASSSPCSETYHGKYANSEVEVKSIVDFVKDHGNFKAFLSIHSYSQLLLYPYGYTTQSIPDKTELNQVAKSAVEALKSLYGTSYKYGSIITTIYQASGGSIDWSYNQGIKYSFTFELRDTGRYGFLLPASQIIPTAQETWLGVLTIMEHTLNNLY
Described as above. In kind it is biochemical, bovine. How it is done:
Inhibitory activities against CPA- and CPB-type forms (bovine and human variants of CPA1, CPA2, CPA4, CPB1, and TAFI) were assayed for all extracts, subject to the experimental conditions that enzyme (E), substrate (S) and inhibitor (I) concentrations as well as the [I]/[E] ratio and preincubation time followed the requirements for tight-binding inhibitor assays. Similar approaches were followed to measure the activities of proteases of different catalytic types, like pepsin, papain, trypsin and subtilisin [45, 46, 47, 48]. All assays were performed in triplicate at 25 °C in a multiplexed manner. For 96-well assays an iEMS spectrophotometer reader/dispenser FM (Labsystems, Finland) was used with a final reaction volume of 250 μL. For cuvette assays, a Cary 400 Bio spectrophotometer (Varian Inc., Palo Alto, CA, USA) spectrophotometer was used with a final reaction volume of 1 ml. The reactions were followed at 5 s intervals for 5 min and recorded as initial velocities. In the protease inhibition assays, mixtures of activity buffer, biological sample and enzyme were preincubated at 25 °C for 10min, before substrate addition. The assay conditions were as follows: for CPA-like enzymes, 7.0nM CPA, 0.1mM AAFP substrate in 20mM Tris-HCl pH 7.5, 500mMNaCl, 1% v/v dimethyl sulfoxide (DMSO), 0.05% w/v BRIJ-35 was used. For CPB-like enzymes, CPB 3.0nM CPB, 0.1mM AAFA substrate and activity buffer of 20 mM Tris-HCl pH [50].
(§1) The Ki values of natural and recombinant NvCI against bCPA1, hCPA1, hCPA2, rat CPA3, hCPA4, hCPB1, bTAFI, hTAFI, hCPD and hCPZ were determined by measuring the enzymatic residual activity (Vi/V0 = a) at different inhibitor concentrations and using a fixed enzyme and substrate concentrations as described above, where vi and v0 are the fraction of enzymatic activity in the presence and absence of inhibitor, respectively, in terms of initial velocities. The determination of Ki values was carried out on equilibrium conditions ([E0]/Ki ≤ 10), using a previously determined preincubation time of 15 min, required to establish enzyme-inhibitor equilibrium. Working temperature was 37 °C. The best estimates of Ki values were obtained by fitting the experimental data to the equation for tight-binding inhibitors by non-linear regression using the GraphPad Prisma 5 software (GraphPad Software, Inc., San Diego, CA, USA) at p < 0.05. The real Ki values against each of these A/B-type MCPs were calculated according to the equation described by Morrison and Copeland [19, 20].

A short description of data set [1]: Folding state and stability by CD at different pH and temperature. In kind it is physicochemical. To be noted: pH 2 to 10, 25 °C to 90 °C, 0.05–0.06 mg/ml. The method, then: The folding state and stability of NvCI was investigated on the natural and recombinant forms by CD. The proteins, either in 0.1% TFA (v/v) or 20mM sodium phosphate (pH 2.0, 6.5 or 8.0) were analyzed at 0.05–0.06 mg/ml, from 25 to 90 °C in a Jasco J-710 spectropolarimeter (Pfugnstadt, Germany) in the 190–320nm range. Additional analyses were made under folding conditions (20mM sodium phosphate, pH 8.0) in the absence and presence of reducing reagent (1 or 20 mM DTT), a redox-pair (1mM Cys + 0.5mM cystine), and either absence or presence of denaturant (8 M urea). Complementary ^1H-NMR experiments were performed in a 500MHz NMR (Bruker Advance) on rNvCI in 20 mM sodium phosphate (pH 2.0 and 6.5), in 90% ^1H2O + 10% D2O, at 298 K. DQF-COSY, NOESY, TOCSY and HSQC spectra were obtained in a TCI cryoprobe of 5mm and used for provisional backbone assignment.

The next data set has as its system CPA1 forms. The data set can be described thus: Apparent binding kinetics, effect of preincubation time. In kind it is biochemical. The conditions noted are these: preincubation over different periods of time, titration and equilibrium conditions. The method, then:
as §1, with “The determination of Ki values was carried out on equilibrium conditions ([E0]/Ki ≤ 10), using a previously determined preincubation time of 15 min, required to establish enzyme-inhibitor equilibrium.” left out

The test system of a further data set is different MCPs. The description is as above. The conditions noted are these: preincubation over different periods of time, titration and equilibrium conditions. In kind it is biochemical. How it is done: as §1, with “The determination of Ki values was carried out on equilibrium conditions ([E0]/Ki ≤ 10), using a previously determined preincubation time of 15 min, required to establish enzyme-inhibitor equilibrium.” left out

As to “NvCI: 53-residue, three-disulphide proteinaceous metallocarboxypeptidase inhibitor from the marine snail Nerita versicolor; major isoform; UniProt P86912 (FHVPDDRPCINPGRCPLVPDATCTFVCKAADNDFGYECQHVWTFEGQRVGCYA; disulfide (positions not given here); also: three disulphides, pairing not given here; UniProt P86912 1-53, looked up)”, the Ki with hTAFI was 393 ± 21.9 pM; with bCPA1 (natural isoforms, apparent Ki, without correction by competing assays, read-out: derived Ki towards bCPA (apparent Ki values)) it was 27 ± 2 pM; with bCPA1 (tight-binding equation fit, equilibrium conditions, substrate AAFP 0.1mM, 20mM Tris-HCl pH 7.5, 500mM NaCl, preincubation 15 min, 37 °C, means (n = 3) ± SD, read-out: Ki), 9.6 ± 1.4 pM. Moreover, the “stability by CD spectra” value in data set [1] is “great stability and capacity to recover its spectral properties when returned to room conditions”. Further, the binding behaviour entry is recorded as “slow binding behavior” in the data set with CPA1 forms and “fast binding” in the data set on different MCPs.
